According to patent US20210380680A1 (ZLLP, published 2021):
Where two headings read alike, the source gives them in different places. Blank lines part the entries; values can stand above or below the molecule they belong to.

Legend:
[1] = biological target: T1, human Claudin 18.2 (CLDN18.2) (human, UniProt P56856-2 1-261); assay: FACS Exp. 2, MFI ratio CHO-18.2 over CHO-18.1
[2] = biological target: T1, human Claudin 18.2 (CLDN18.2); assay: FACS Exp. 1, MFI ratio CHO-18.2 over CHO-18.1
[3] = biological target: CLDN18.2 endogenously expressed on SNU620 gastric cancer cells (UniProt P56856); assay: FACS Exp. 3, SNU620 cells
[4] = biological target: T1, human Claudin 18.2 (CLDN18.2); assay: FACS on CHO-CLDN18.2 cells
Procedure: Binding curves were generated to rank the binding affinities of hybridoma antibodies. Briefly, a total of 1×10⁵ CHO-CLDN18.2 cells for each well were seeded in 96-well plate and washed by FACS buffer (DPBS containing 2% FBS) twice. Cells were incubated by series diluted purified hybridoma antibodies for 1 h. After primary antibody incubation, cells were washed by FACS buffer for two times. […] FlowJo software was used for analysis. Data was plotted as the logarithm of antibody concentration versus mean fluorescence signals. Nonlinear regression analysis was performed by GraphPad Prism 6 (GraphPad Software) and EC50 values were calculated.

[5] = biological target: T1, human Claudin 18.2 (CLDN18.2); assay: FACS
[6] = biological target: T1, human Claudin 18.2 (CLDN18.2); assay: FACS on CHO-CLDN18.2 cells; remark: listed apart in the source
[7] = biological target: T1, human Claudin 18.2 (CLDN18.2); assay: cell-based or functional assay
[8] = biological target: T1, human Claudin 18.2 (CLDN18.2); assay: cell-based or functional assay; remark: listed apart in the source
[9] = biological target: T1, human Claudin 18.2 (CLDN18.2); assay: cell-based or functional assay; remark: listed apart in the source
[10] = biological target: T1, human Claudin 18.2 (CLDN18.2); assay: cell-based or functional assay; remark: listed apart in the source
[11] = biological target: T1, human Claudin 18.2 (CLDN18.2); assay: cell-based or functional assay; remark: listed apart in the source
[12] = biological target: T1, human Claudin 18.2 (CLDN18.2); assay: FACS on CHO-CLDN18.2 cells; remark: listed apart in the source

MFI CHO-18.2/CHO-18.1 (@30 ug/ml) [1]: 1
MFI CHO-18.2/CHO-18.1 (@30 ug/ml) [2]: 1.1
MFI SNU620 (@30 ug/ml) [3]: 15.7 MFI
Molecule: human IgG1 isotype control (antibody)

EC50 [4]: 3.26 nM
B1: 357B8F8 (mouse hybridoma antibody) (antibody, V domains shown)
VH: QVQLKESGPGLVAPSQSLSITCTVSGFSLTSYGVHWVRQPPGKGLEWLGVIWPGGNTNYNSALMSRLSISKDNSKSQVFLKMNSLQTDDTAMYYCARDRRLAMDYWGQGTSVTVSS
VL: DIVMTQSPSSLTVTAGEKVTMTCKSSQSLLNSGNQKNYLTWYQQKPGQPPKLLIYWASTRESGVPDRFTGSGSGTDFTLTISILQAEDLAVYYCQNDYSYPFTFGSGTKLEIK
notes: purified mouse IgG from hybridoma

EC50 [4]: 3.68 nM
B2: Ms175D10 (antibody, V domains shown)
VH: QVQLQQPGAELVRPGASVKLSCKASGYTFTSYWINWVKQRPGQGLEWIGNIYPSDSYTNYNQKFKDKATLTVDKSSSTAYMQLSSPTSEDSAVYYCTRSWRGNSFDYWGQGTTLTVSS
VL: DIVMTQSPSSLTVTAGEKVTMSCKSSQSLLNSGNQKNYLTWYQQKPGQPPKLLIYWASTRESGVPDRFTGSGSGTDFTLTISSVQAEDLAVYYCQNDYSYPFTFGSGTKLEIK

binding result [5]: binds
B3: 282A12F3-VH-N60E (antibody, human IgG1, kappa, V domains shown)
VH: QVQLKESGPVLVQPSQTLSLTCTVAGFSLTSYNVYWVRQPPGKGLEWMGVIWNTGATRYESTLKSRLSISKDTSKSQVFLKMNSLQTEDTATYYCARDSAMPAIPFAYWGQGTLVTVSS
VL: DIVMTQSPSSLAVSAGETVTINCKSSQSLFGSVRQKNYLAWYQQKPGQSPKLLIYLASTRESGVPDRFIGSGSGTDFTLTISSVQAEDLAKYYCQQYYDIPWTFGGGTKLELKR
notes: chimeric human IgG1, PTM site removed

binding result [5]: binds
B4: 282A12F3-VH-N60Q (antibody, human IgG1, kappa, V domains shown)
VH: QVQLKESGPVLVQPSQTLSLTCTVAGFSLTSYNVYWVRQPPGKGLEWMGVIWNTGATRYQSTLKSRLSISKDTSKSQVFLKMNSLQTEDTATYYCARDSAMPAIPFAYWGQGTLVTVSS
VL: DIVMTQSPSSLAVSAGETVTINCKSSQSLFGSVRQKNYLAWYQQKPGQSPKLLIYLASTRESGVPDRFIGSGSGTDFTLTISSVQAEDLAKYYCQQYYDIPWTFGGGTKLELKR
notes: as for B3

EC50 [6]: 1.99 nM
ADCC EC50, CHO-CLDN18.2, FcR-TANK [7]: 0.008 nM
CDC EC50, human serum, CHO-CLDN18.2 [8]: 1.13 nM
ADCC EC50, NUGC4-CLDN18.2, PBMC [9]: 0.0492 nM
ADCC EC50, NUGC4-CLDN18.2, PBMC [10]: 5.3 nM
% ADCC @ 6.67 nM, NCI-N87-CLDN18.2, FcR-TANK [11]: 13.2%
ADCC EC50, NCI-N87-CLDN18.2, FcR-TANK [11]: 0.24 nM
B5: 413H9F8-cp2 (antibody, V domains shown)
VH: DVQLVESGGGLVQPGGSLRLSCAASGFTFSSFGMHWVRQAPGKGLEWVAYISSGSSPIYYVDKLKGRFTISRDNAKNSLYLQMNSLRAEDTAVYYCARAGYAVRNALDYWGQGTLVTVSS
VL: EIVMTQSPPTLSLSPGERVTLSCKSSQSLLNVGNQKNYLAWYQQKPGQAPRLLIYGASTRESGIPARFSGSGSGTDFTLTISSLQPEDFAVYYCQNDLFYPLTFGGGTKVEIK
notes: humanized IgG; constant regions not specified
% specific cytotoxicity @ 6.67 nM, NUGC4-CLDN18.2, PBMC [10]: 32%

ADCC EC50, NUGC4-CLDN18.2, PBMC [9]: 0.0148 nM
B6: 413H9F8-H2L2-V2-DL (antibody, V domains shown)
VH: EVQLVESGGGLVQPGGSLRLSCAASGFTFSSFGMHWVRQAPGKGLEWVAYISSGSSPIYYVDKLKGRFTISRDNAKNSLYLQMNSLRAEDTAVYYCARAGYAVRNALDYWGQGTLVTVSS
VL: DIVMTQSPDSLAVSLGERATINCKSSQSLLNVGNQKNYLAWYQQKPGQPPKLLIYGASTRESGVPDRFSGSGSGTDFTLTISSLQAEDVAVYFCQNDLFYPLTFGGGTKVEIK

EC50 [12]: 1.97 nM
CDC EC50, human serum, CHO-CLDN18.2 [8]: 0.84 nM
ADCC EC50, NUGC4-CLDN18.2, PBMC [9]: 0.48 nM
ADCC EC50, NUGC4-CLDN18.2, PBMC [10]: 6.14 nM
% ADCC @ 6.67 nM, NCI-N87-CLDN18.2, FcR-TANK [11]: 13.7%
ADCC EC50, NCI-N87-CLDN18.2, FcR-TANK [11]: 0.33 nM
B7: 413H9F8-H2L2 (antibody, V domains shown)
VH: EVQLVESGGGLVQPGGSLRLSCAASGFTFSSFGMHWVRQAPGKGLEWVAYISSGSSPIYYVDKLKGRFTISRDNAKNSLYLQMNSLRAEDTAVYYCARAGYAVRNALDYWGQGTLVTVSS
VL: DIVMTQSPDSLAVSLGERATINCKSSQSLLNVGNQKNYLAWYQQKPGQPPKLLIYGASTRESGVPDRFSGSGSGTDFTLTISSLQAEDVAVYFCQNDLFYPLTFGGGTKVEIK
notes: as for B5
% specific cytotoxicity @ 6.67 nM, NUGC4-CLDN18.2, PBMC [10]: 33.2%

ADCC EC50, CHO-CLDN18.2, FcR-TANK [7]: 0.001 nM
ADCC EC50, NUGC4-CLDN18.2, PBMC [9]: 0.0146 nM
B8: 413H9F8-cp2-V2-DL (antibody, V domains shown)
VH: DVQLVESGGGLVQPGGSLRLSCAASGFTFSSFGMHWVRQAPGKGLEWVAYISSGSSPIYYVDKLKGRFTISRDNAKNSLYLQMNSLRAEDTAVYYCARAGYAVRNALDYWGQGTLVTVSS
VL: EIVMTQSPPTLSLSPGERVTLSCKSSQSLLNVGNQKNYLAWYQQKPGQAPRLLIYGASTRESGIPARFSGSGSGTDFTLTISSLQPEDFAVYYCQNDLFYPLTFGGGTKVEIK

ADCC EC50, CHO-CLDN18.2, FcR-TANK [7]: 0.0024 nM
ADCC EC50, NUGC4-CLDN18.2, PBMC [9]: 0.0175 nM
B9: 413H9F8-cp2-MG-DL (antibody, V domains shown)
VH: DVQLVESGGGLVQPGGSLRLSCAASGFTFSSFGMHWVRQAPGKGLEWVAYISSGSSPIYYVDKLKGRFTISRDNAKNSLYLQMNSLRAEDTAVYYCARAGYAVRNALDYWGQGTLVTVSS
VL: EIVMTQSPPTLSLSPGERVTLSCKSSQSLLNVGNQKNYLAWYQQKPGQAPRLLIYGASTRESGIPARFSGSGSGTDFTLTISSLQPEDFAVYYCQNDLFYPLTFGGGTKVEIK

ADCC EC50, NUGC4-CLDN18.2, PBMC [9]: 0.0046 nM
B10: 413H9F8-H2L2-MG-DL (antibody, V domains shown)
VH: EVQLVESGGGLVQPGGSLRLSCAASGFTFSSFGMHWVRQAPGKGLEWVAYISSGSSPIYYVDKLKGRFTISRDNAKNSLYLQMNSLRAEDTAVYYCARAGYAVRNALDYWGQGTLVTVSS
VL: DIVMTQSPDSLAVSLGERATINCKSSQSLLNVGNQKNYLAWYQQKPGQPPKLLIYGASTRESGVPDRFSGSGSGTDFTLTISSLQAEDVAVYFCQNDLFYPLTFGGGTKVEIK

binding result [5]: binds
B11: 364D1A7-VL-N31E (antibody, human IgG1, kappa, V domains shown)
VH: DVQLVESGGGLVQPGGSRKLSCAASGFTFSSFGMHWVRQAPEKGLEWVAYISSGSGSIYYADTVKGRFTLSRDNPKNTLFLQMTSLRSEDTAIYYCATSYYYGNALEYWGQGTSVTVSS
VL: DVVLTQSPSSLTVTEGEKVSMSCKSSQSLFESGNQKNYLTWYQQKPGQTPTLLIYWASTRKSGVPDRFTGSGSGTDFTLTINTVQAEDLAVYYCQNVYSYPLTFGAGTKLDLKR
notes: as for B3

EC50 [4]: 5.22 nM
B12: 364D1A7 (mouse hybridoma antibody) (antibody, V domains shown)
VH: DVQLVESGGGLVQPGGSRKLSCAASGFTFSSFGMHWVRQAPEKGLEWVAYISSGSGSIYYADTVKGRFTLSRDNPKNTLFLQMTSLRSEDTAIYYCATSYYYGNALEYWGQGTSVTVSS
VL: DVVLTQSPSSLTVTEGEKVSMSCKSSQSLFNSGNQKNYLTWYQQKPGQTPTLLIYWASTRKSGVPDRFTGSGSGTDFTLTINTVQAEDLAVYYCQNVYSYPLTFGAGTKLDLK
notes: as for B1

MFI_CHO-18.2/CHO-18.1 (@30 ug/ml) [2]: 163
MFI SNU620 (@30 ug/ml) [3]: 308 MFI
B13: hz282-9 (antibody, V domains shown)
VH: QVQLQESGPGLVKPSETLSLTCTVSGFSLTSYNVYWIRQPPGKGLEWIGVIWNTGATRYNSALKSRVTISVDTSKNQFSLKLSSVTAADTAVYYCARDSAMPAIPFAYWGQGTLVTVSS
VL: DIQMTQSPSSLSASVGDRVTITCKSSQSLFGSVRQKNYLAWYQQKPGKAPKLLIYLASTRESGVPSRFSGSGSGTDFTLTISSLQPEDFATYYCQQYYDIPWTFGGGTKVEIK
notes: as for B5

MFI_CHO-18.2/CHO-18.1 (@30 ug/ml) [2]: 249
MFI SNU620 (@30 ug/ml) [3]: 176 MFI
B14: hz282-17 (antibody, V domains shown)
VH: QVQLQESGPGLVKPSETLSLTCTVSGFSLTSYNVYWIRQPPGKGLEWIGVIWNTGATRYNSALKSRVTISVDTSKNQFSLKLSSVTAADTAVYYCARDSAMPAIPFAYWGQGTLVTVSS
VL: DIVMTQSPSSLSASVGDRVTINCKSSQSLFGSVRQKNYLAWYQQKPGKSPKLLIYLASTRESGVPDRFSGSGSGTDFTLTISSLQPEDFAKYYCQQYYDIPWTFGGGTKVEIK
notes: as for B5

MFI_CHO-18.2/CHO-18.1 (@30 ug/ml) [2]: 201
MFI SNU620 (@30 ug/ml) [3]: 144 MFI
B15: hz282-13 (antibody, V domains shown)
VH: QVQLQESGPGLVKPSETLSLTCTVSGFSLTSYNVYWIRQPPGKGLEWIGVIWNTGATRYNSALKSRVTISVDTSKNQFSLKLSSVTAADTAVYYCARDSAMPAIPFAYWGQGTLVTVSS
VL: DIQMTQSPSSLSASVGDRVTITCKSSQSLFGSVRQKNYLAWYQQKPGKSPKLLIYLASTRESGVPDRFSGSGSGTDFTLTISSLQPEDFAKYYCQQYYDIPWTFGGGTKVEIK
notes: as for B5

binding result [5]: binds
B16: 413H9F8-VL-N31E (antibody, human IgG1, kappa, V domains shown)
VH: DVQLVESGGGSVQPGGSRRLSCAASGFTFSSFGMHWVRQAPEKGLEWVAYISSGSSPIYYVDKLKGRFTVSRDNPKNTLFLQMTSLRSEDTAMYYCARAGYAVRNALDYWGQGTSITVSS
VL: DIVMTQSPSSLSVSVGEKVTLSCKSSQSLLESGNQKNYLAWYQQKTGQPPKLLIYGASTRESGVPDRFIGSGSGTDFTLTISSVQAEDLAVYFCQNDLFYPLTFGAGTKLELKR
notes: as for B3

EC50 [4]: 8.3 nM
B17: 413H9F8 (mouse hybridoma antibody) (antibody, V domains shown)
VH: DVQLVESGGGSVQPGGSRRLSCAASGFTFSSFGMHWVRQAPEKGLEWVAYISSGSSPIYYVDKLKGRFTVSRDNPKNTLFLQMTSLRSEDTAMYYCARAGYAVRNALDYWGQGTSITVSS
VL: DIVMTQSPSSLSVSVGEKVTLSCKSSQSLLNSGNQKNYLAWYQQKTGQPPKLLIYGASTRESGVPDRFIGSGSGTDFTLTISSVQAEDLAVYFCQNDLFYPLTFGAGTKLELK
notes: as for B1
